According to article PMC4615246 (Nucleus, 2015):

Experiments:
Experiment in all cases: LacI/LacO array recruitment in cells
LacI-CFP-Nup107 = target: T1, LacI-CFP-Nup107 (human, UniProt P57740 1-925)
T1 sequence: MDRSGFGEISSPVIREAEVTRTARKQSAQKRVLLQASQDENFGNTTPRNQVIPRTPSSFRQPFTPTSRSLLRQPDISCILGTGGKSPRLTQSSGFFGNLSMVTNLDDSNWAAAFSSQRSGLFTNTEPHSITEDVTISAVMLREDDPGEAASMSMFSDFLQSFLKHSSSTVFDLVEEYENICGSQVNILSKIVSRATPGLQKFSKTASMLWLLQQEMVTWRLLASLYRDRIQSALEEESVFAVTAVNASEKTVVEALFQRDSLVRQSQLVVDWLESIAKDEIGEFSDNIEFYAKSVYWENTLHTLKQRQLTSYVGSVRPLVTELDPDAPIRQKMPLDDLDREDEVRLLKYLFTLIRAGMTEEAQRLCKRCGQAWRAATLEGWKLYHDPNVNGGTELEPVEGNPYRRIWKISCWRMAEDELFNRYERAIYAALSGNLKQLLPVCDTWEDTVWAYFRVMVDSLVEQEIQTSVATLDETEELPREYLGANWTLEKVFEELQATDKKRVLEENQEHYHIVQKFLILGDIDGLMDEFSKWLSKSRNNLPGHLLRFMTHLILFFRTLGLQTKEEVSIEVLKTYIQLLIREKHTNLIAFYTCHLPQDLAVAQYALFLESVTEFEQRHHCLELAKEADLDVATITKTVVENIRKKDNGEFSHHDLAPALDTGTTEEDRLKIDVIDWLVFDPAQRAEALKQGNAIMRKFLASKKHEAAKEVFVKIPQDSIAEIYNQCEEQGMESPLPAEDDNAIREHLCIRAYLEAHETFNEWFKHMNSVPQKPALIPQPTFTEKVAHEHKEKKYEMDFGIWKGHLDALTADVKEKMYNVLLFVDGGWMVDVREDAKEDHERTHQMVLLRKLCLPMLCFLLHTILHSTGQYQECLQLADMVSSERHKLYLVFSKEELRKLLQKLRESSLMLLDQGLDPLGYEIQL

LacI-CFP-Nup133 = target: T2, LacI-CFP-Nup133 (human, UniProt Q8WUM0 1-1156)
T2 sequence: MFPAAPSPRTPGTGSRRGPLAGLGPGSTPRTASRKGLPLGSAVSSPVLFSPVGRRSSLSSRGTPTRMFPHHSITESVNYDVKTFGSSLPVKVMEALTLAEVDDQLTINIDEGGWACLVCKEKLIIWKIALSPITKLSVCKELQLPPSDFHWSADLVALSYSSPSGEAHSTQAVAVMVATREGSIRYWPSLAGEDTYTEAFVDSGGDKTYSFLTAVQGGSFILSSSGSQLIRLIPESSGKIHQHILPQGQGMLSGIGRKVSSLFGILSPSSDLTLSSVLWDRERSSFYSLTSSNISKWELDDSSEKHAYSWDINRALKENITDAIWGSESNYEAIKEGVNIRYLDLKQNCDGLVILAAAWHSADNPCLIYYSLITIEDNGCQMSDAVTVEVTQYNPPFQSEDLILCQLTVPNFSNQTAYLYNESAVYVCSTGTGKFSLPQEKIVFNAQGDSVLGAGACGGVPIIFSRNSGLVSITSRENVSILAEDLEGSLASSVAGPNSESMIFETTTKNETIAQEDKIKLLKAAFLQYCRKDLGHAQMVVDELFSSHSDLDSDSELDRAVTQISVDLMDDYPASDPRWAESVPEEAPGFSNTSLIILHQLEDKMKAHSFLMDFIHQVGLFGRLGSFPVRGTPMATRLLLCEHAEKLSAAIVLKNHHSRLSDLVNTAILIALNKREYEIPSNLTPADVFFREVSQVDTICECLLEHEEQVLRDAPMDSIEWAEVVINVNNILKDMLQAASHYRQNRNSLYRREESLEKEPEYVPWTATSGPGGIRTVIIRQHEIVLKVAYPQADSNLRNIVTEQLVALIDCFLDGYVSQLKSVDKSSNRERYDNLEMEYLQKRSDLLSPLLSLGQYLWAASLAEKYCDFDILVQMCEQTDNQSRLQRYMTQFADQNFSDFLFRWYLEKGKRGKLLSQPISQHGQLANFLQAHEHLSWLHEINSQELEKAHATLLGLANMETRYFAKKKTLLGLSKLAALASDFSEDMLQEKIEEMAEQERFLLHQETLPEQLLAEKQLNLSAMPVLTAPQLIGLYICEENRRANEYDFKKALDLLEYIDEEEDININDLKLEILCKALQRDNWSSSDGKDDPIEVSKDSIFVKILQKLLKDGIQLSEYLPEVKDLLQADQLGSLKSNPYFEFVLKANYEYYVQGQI

LacI-CFP-Nup50 = target: T3, LacI-CFP-Nup50 (human, UniProt Q9UKX7 1-468)
T3 sequence: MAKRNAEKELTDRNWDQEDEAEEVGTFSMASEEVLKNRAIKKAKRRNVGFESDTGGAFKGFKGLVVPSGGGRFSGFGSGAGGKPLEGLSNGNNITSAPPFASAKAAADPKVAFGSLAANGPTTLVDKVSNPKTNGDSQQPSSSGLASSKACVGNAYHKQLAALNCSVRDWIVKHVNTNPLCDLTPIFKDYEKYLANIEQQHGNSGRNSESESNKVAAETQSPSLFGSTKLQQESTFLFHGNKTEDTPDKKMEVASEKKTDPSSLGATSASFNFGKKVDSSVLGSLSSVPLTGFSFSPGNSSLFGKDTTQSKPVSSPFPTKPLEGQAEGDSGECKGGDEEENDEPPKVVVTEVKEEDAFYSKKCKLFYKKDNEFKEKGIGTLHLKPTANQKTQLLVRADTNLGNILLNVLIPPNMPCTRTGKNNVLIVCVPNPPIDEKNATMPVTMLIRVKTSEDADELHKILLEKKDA

percent of transfected cells showing colocalization (LacI-CFP-Nup107): 88% | percent of transfected cells showing colocalization (LacI-CFP-Nup133): 86% | percent of transfected cells showing colocalization (LacI-CFP-Nup50): 32%
B1: Nup85 (endogenous) (natural protein)
chain: MEELDGEPTVTLIPGVNSKKNQMYFDWGPGEMLVCETSFNKKEKSEMVPSCPFIYIIRKDVDVYSQILRKLFNESHGIFLGLQRIDEELTGKSRKSQLVRVSKNYRSVIRACMEEMHQVAIAAKDPANGRQFSSQVSILSAMELIWNLCEILFIEVAPAGPLLLHLLDWVRLHVCEVDSLSADVLGSENPSKHDSFWNLVTILVLQGRLDEARQMLSKEADASPASAGICRIMGDLMRTMPILSPGNTQTLTELELKWQHWHEECERYLQDSTFATSPHLESLLKIMLGDEAALLEQKELLSNWYHFLVTRLLYSNPTVKPIDLHYYAQSSLDLFLGGESSPEPLDNILLAAFEFDIHQVIKECSIALSNWWFVAHLTDLLDHCKLLQSHNLYFGSNMREFLLLEYASGLFAHPSLWQLGVDYFDYCPELGRVSLELHIERIPLNTEQKALKVLRICEQRQMTEQVRSICKILAMKAVRNNRLGSALSWSIRAKDAAFATLVSDRFLRDYCERGCFSDLDLIDNLGPAMMLSDRLTFLGKYREFHRMYGEKRFADAASLLLSLMTSRIAPRSFWMTLLTDALPLLEQKQVIFSAEQTYELMRCLEDLTSRRPVHGESDTEQLQDDDIETTKVEMLRLSLARNLARAIIREGSLEGS
